Measured values taken from paper PMC4305291.

Molecular target: integrin αIIb_W968C (human)
Assay: cross-linking; disulfide between engineered cysteines in cells; S35-labelled CHO cells lysed, immunoprecipitated with anti-αIIb mAb 10E5 and protein G-Sepharose, SDS-PAGE with or without 2 mM DTT, radioautography

Q: How did the efficiency of disulfide formation turn out when “integrin β3_I693C (from UniProt P05106 27-788) (natural protein)” was run?
A: The efficiency of disulfide formation was 100%.
